Five molecules from patent publication US20160130340A1 (ALDERBIO, published 2016) can be followed below.

Numbering of substitutions follows the chain as printed.

Experiment [1] addresses T1, Mouse IL-6 (mouse, UniProt P08505 25-211).
T1 sequence (looked up): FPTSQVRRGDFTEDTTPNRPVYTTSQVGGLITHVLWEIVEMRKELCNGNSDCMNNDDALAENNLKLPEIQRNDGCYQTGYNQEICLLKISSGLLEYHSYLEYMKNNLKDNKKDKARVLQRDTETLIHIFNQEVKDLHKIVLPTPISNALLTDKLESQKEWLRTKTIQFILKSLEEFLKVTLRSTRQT
The experiment in a line: cell-based or functional assay.

Experiment [2] deals with T2, Cynomolgus monkey IL-6 (cynomolgus monkey, UniProt P79341 28-212, limits assumed).
T2 sequence (looked up): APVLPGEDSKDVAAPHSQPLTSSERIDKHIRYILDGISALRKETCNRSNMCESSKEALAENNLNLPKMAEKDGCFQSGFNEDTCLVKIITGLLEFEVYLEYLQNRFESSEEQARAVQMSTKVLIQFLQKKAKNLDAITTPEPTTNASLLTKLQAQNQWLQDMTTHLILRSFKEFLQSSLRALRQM
Briefly: cell-based or functional assay.

Experiment [3] concerns the target T3, Human IL-6 (human, UniProt P05231 30-212). The experiment in a line: cell-based or functional assay.
Experiment [4] has as its target T4, Rat IL-6 (rat, UniProt P20607 25-211).
T4 sequence (looked up): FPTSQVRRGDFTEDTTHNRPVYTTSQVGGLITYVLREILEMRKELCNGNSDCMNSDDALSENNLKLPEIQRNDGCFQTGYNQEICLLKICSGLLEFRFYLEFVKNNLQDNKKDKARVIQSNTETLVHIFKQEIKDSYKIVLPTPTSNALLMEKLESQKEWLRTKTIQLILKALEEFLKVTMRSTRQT
Briefly: cell-based or functional assay.

Experiment [5] has as its target T1, Mouse IL-6. Briefly: surface plasmon resonance, 25 C, averaged constants.
Experiment [6] has as its target T2, Cynomolgus monkey IL-6. Described as above.
Experiment [7] deals with T3, Human IL-6. The description is as above.
In experiment [8] the target is T4, Rat IL-6. Described as above.
Experiment [9] concerns the target T3, Human IL-6. The experiment in a line: Octet bio-layer interferometry; antibody captured on anti-human IgG Fc sensor, then IL-6, then soluble IL-6R1, then gp130 in the presence of IL-6R1; ligand whose binding is slowed: gp130. As to the method:
(§1) To determine the antibody mechanism of action, mechanistic studies were performed using bio-layer interferometry with an Octet QK instrument (ForteBio; Menlo Park, Calif.). Studies were performed in two different configurations. […] Binding is monitored as an increase in signal.
(§2) In the second orientation, the antibody was bound to a biosensor coated with an anti-human IgG1 Fc-specific reagent (ForteBio part number 18-5001). […] All studies were performed in a 200 μL final volume, at 30° C. and 1000 rpm. For these studies, all proteins were diluted using ForteBio's sample diluent buffer (part number 18-5028).

The target in experiment [10] is T3, Human IL-6. The experiment in a line: Octet bio-layer interferometry; antibody captured on anti-human IgG Fc sensor, then IL-6, then soluble IL-6R1, then gp130 in the presence of IL-6R1; blocked ligands: IL-6R1 and gp130. As to the method:
as §1, §2

Experiment [11] deals with T3, Human IL-6. Briefly: Octet bio-layer interferometry; biotinylated IL-6 on streptavidin sensor, then antibody or buffer, then soluble IL-6R1, then gp130 in the presence of IL-6R1; blocked ligand: gp130. As to the method:
as §1
The IL-6 bound to the sensor was then incubated either with the antibody in question or diluent solution alone.

B1: Ab1 (antibody, human IgG1, kappa, N297A, V domains shown)
VH: EVQLVESGGGLVQPGGSLRLSCAASGFSLSNYYVTWVRQAPGKGLEWVGIIYGSDETAYATSAIGRFTISRDNSKNTLYLQMNSLRAEDTAVYYCARDDSSDWDAKFNLWGQGTLVTVSS
VL: AIQMTQSPSSLSASVGDRVTITCQASQSINNELSWYQQKPGKAPKLLIYRASTLASGVPSRFSGSGSGTDFTLTISSLQPDDFATYYCQQGYSLRNIDNAFGGGTKVEIKR
notes: Humanized from a rabbit antibody, IgG1 kappa, aglycosylated, produced in Pichia pastoris; also called clazakizumab; ALD518
In the case of B1, the “IC50 (pM), T1165 cell proliferation stimulated by the species' IL-6” value came out at 1840 pM in experiment [1], 12 pM in [2], 13 pM in experiment [3] and 2060 pM in experiment [4]. In addition, the Kd was 0.4 nM in [5], 0.031 nM in experiment [6], 0.004 nM in experiment [7] and 1.4 nM in experiment [8]. Moreover, the koff in experiment [5] is 0.0004 s⁻¹; in experiment [6], 3e-06 s⁻¹; in experiment [7], 5e-07 s⁻¹; in experiment [8], 0.0022 s⁻¹. Moreover, the kon in experiment [5] stood at 1.1e+06 M⁻¹ s⁻¹; in experiment [6] it was 96000 M⁻¹ s⁻¹; in experiment [7], 160000 M⁻¹ s⁻¹; in experiment [8] it was 1.6e+06 M⁻¹ s⁻¹.

B2: Ab2 (antibody, V domains shown)
VH: QEQLKESGGRLVTPGTPLTLTCTASGFSLNDHAMGWVRQAPGKGLEYIGFINSGGSARYASWAEGRFTISRTSTTVDLKMTSLTTEDTATYFCVRGGAVWSIHSFDPWGPGTLVTVSS
VL: AYDMTQTPASVEVAVGGTVTINCQASETIYSWLSWYQQKPGQPPKLLIYQASDLASGVPSRFSGSGAGTEYTLTISGVQCDDAATYYCQQGYSGSNVDNVFGGGTEVVVKR
notes: The entry may carry a leader
Consider B2, for which, in experiment [9], the binding result is on record as “binds”.

B3: Ab6 (antibody, V domains shown)
VH: QSVEESGGRLVTPGTPLTLTCTVSGIDLSDYAMSWVRQAPGKGLEWIGIIYAGSGSTWYASWAKGRFTISKTSTTVDLKITSPTTEDTATYFCARDGYDDYGDFDRLDLWGPGTLVTVSS
VL: AAVLTQTPSPVSVPVGGTVTIKCQSSQSVYNNFLSWYQQKPGQPPKLLIYQASKLASGVPDRFSGSGSGTQFTLTISGVQCDDAATYYCLGGYDDDADNAFGGGTEVVVKR
notes: Captured on an anti-human IgG1 Fc sensor
Turning to B3, the binding result in experiment [10] is on record as “binds”.

B4: Ab4 (antibody, V domains shown)
VH: QEQLKESGGGLVTPGGTLTLTCTASGFSLNAYYMNWVRQAPGKGLEWIGFITLNNNVAYANWAKGRFTFSKTSTTVDLKMTSPTPEDTATYFCARSRGWGAMGRLDLWGHGTLVTVSS
VL: DPVLTQTPSPVSAPVGGTVSISCQASQSVYENNYLSWFQQKPGQPPKLLIYGASTLDSGVPSRFKGSGSGTQFTLTITDVQCDDAATYYCAGVYDDDSDDAFGGGTEVVVKR
notes: as for B3
In the case of B4, the binding result in experiment [11] is reported as “binds”.

B5: Ab3 (antibody, V domains shown)
VH: QSLEESGGRLVTPGTPLTLTCTASGFSLSVYYMNWVRQAPGKGLEWIGFITMSDNINYASWAKGRFTISKTSTTVDLKMTSPTTEDTATYFCARSRGWGTMGRLDLWGPGTLVTVSS
VL: B4 VL with D1A, P2A, P14A, E31D, D57A, K65V, D100N
notes: as for B3
With B5, in [11], the binding result was “binds”.
